Results as given in US20210079111A1 (ABCYTE THERAPEUTICS, published 2021).

Key:
[1] = biological target: CD19 CAR chain of CD19 CAR-mIL7 (CAR-1-CD19/CAR-2-IL-7, plasmid PC035), on transduced T cells; experiment: flow cytometry, CD19 CAR-mIL7 T cells stained with Protein L
[2] = biological target: T1, CD19 on CD19 positive cells (Raji, Nalm-6) (human, UniProt P15391 20-556); experiment: cell-based or functional assay
T1 sequence (looked up): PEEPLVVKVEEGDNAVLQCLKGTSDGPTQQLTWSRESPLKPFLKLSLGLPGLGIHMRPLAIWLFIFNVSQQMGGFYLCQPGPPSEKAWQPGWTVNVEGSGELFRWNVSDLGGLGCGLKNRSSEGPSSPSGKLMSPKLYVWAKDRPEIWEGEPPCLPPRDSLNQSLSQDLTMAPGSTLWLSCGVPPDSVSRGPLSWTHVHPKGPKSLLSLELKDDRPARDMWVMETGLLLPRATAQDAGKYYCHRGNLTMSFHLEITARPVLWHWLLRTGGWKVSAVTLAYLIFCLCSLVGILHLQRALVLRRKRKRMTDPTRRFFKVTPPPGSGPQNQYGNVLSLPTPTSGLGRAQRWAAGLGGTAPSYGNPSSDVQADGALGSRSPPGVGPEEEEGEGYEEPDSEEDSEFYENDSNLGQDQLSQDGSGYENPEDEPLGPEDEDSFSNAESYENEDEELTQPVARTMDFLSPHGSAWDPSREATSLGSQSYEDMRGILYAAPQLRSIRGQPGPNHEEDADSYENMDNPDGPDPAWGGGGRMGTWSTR

[3] = biological target: T2, CD20 on CD20 positive cells (Raji, Nalm-6) (UniProt P11836 1-297, limits assumed); experiment: cell-based or functional assay
T2 sequence (looked up): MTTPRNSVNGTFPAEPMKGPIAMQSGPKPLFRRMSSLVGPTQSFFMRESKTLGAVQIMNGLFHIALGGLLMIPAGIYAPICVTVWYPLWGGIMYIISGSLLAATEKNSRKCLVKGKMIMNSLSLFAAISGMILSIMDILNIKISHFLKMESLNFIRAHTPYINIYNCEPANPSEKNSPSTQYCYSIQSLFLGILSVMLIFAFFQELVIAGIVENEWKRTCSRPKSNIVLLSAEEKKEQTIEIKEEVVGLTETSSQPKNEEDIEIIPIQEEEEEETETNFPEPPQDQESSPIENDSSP

Protein L
percent positive cells [1]: 49%

B1: CAR-1-CD19 (full humanized anti-CD19 single CAR), on transduced T cells (other)
chain: DIQMTQSPSSLSASVGDRVTITCRASQDISKYLNWYQQKPGKAPKLLIYHTSRLHSGVPSRFSGSGSGTDYTLTISSLQPEDFATYYCQQGNTLPYTFGGGTKVEIKGSTSGGGSGGGSGGGGSSQVQLQESGPGLVKPSQTLSLTCTVSGVSLPDYGVSWIRQPPGKGLEWLGVIWGSETTYYNSALKSRLTISRDNSKNTLYLQMNSLRAEDTAVYYCAKHYYYGGSYAMDYWGQGTTVTVSSTTTPAPRPPTPAPTIASQPLSLRPEACRPAAGGAVHTRGLDFACDFWLPIGCAAFVVVCILGCILICWLTKKKYSSSVHDPNGEYMFMRAVNTAKKSRLTDVTLRVKFSRSADAPAYKQGQNQLYNELNLGRREEYDVLDKRRGRDPEMGGKPRRKNPQEGLYNELQKDKMAEAYSEIGMKGERRRGKGHDGLYQGLSTATKDTYDALHMQALPPR
target cell killing at E/T ratio at 10:1, 4 h, Raji and Nalm-6 co-culture (flow cytometry, CFSE/Annexin/PI) [2]: > 90%

B2: CAR-1-CD20 (full humanized anti-CD20 single CAR), on transduced T cells (other)
chain: EIVLTQSPATLSLSPGERATMTCRASSSVNYMDWYQQKPGQAPRPWIYATSNLASGVPARFSGSGSGTDFTLTISSLEPEDFAVYYCQQWSFNPPTFGGGTKVEIKGSTSGGGSGGGSGGGGSSQVQLVQSGAEVKKPGASVKVSCKASGYTFTSYNMHWVRQAPGQGLEWIGAIYPGNGDTSYNQKFKGKATLTRDTSTSTVYMELSSLRSEDTAVYYCARSNYYGSSYWFFDVWGQGTTVTVSSTTTPAPRPPTPAPTIASQPLSLRPEACRPAAGGAVHTRGLDFACDFWLPIGCAAFVVVCILGCILICWLTKKKYSSSVHDPNGEYMFMRAVNTAKKSRLTDVTLRVKFSRSADAPAYKQGQNQLYNELNLGRREEYDVLDKRRGRDPEMGGKPRRKNPQEGLYNELQKDKMAEAYSEIGMKGERRRGKGHDGLYQGLSTATKDTYDALHMQALPPR
target cell killing at E/T ratio at 10:1, 4 h, Raji and Nalm-6 co-culture (flow cytometry, CFSE/Annexin/PI) [3]: > 80%
